A short description of the data set: label from the status in PepcDB records.

Data on 22 sequences can be found in a protein production outcome set (Wang et al. 2014).

Turning to “MSIVVPAYEEAQSLPELADGVRAACEEAGLSFRLWIIDDGSRDETWEVVRGLCEDDPRVAGVRFRRNYGKSAALAVGFDRVQGRYVATMDADLQDDPDEIPALIDKLEEGGHDLVSGWKKDRKDPLRKTLPSRFFNWVTRLFSGLPLHDFNCGLKVYRRPVVKSIDVYGELHRYIPLLAKWEGYDRVAEKEVQHHPRKYGTTKFGVERFIQGFLDLITVVFLTRYAVRPMHFFGSMGTVAFALGFLVSLWLSFDKLVLGHPIGDRPLLLLGVLLILFGSQMFTTGLLGEMIIRPRMEDPSTYEVAEATGLADEAADVLEG”, the protein production entry is listed as “failed”.

On to “MSIYKDINIASAKPSLKERKNIKHYALDHLNIDEKNNAPLFKTLLEDAMRVSSKEILLIVGGSSFYLKSILEGLSRMPKLSGEEVVKIEREIATLSNPYIFLKSIDPNMAFKIHPNDTYRTHKALEIFYATCTPPSEYFKANPKKPFEHAISLFALSIEKSALHNNIKRRTKNMLHSGLVEEIKALYTQYPKDSQPFKAIGVKESVLFLEKRLTLKELEEAITSNTMKLAKRQNTFNKTQFNNLYVGSAEEVRHAILKHSKSGIKG”, for which the protein production entry is listed as “failed”.

With “MSKAKAPINTDELKQKYGRVYEIRIEGLEYENGEEAEFVFYFTRPKVSDISRFTKELNSKPDMAMKNLTFSCIVPEQEEELRQAAEEFPGLTFNTASRLMEIVGASAATSLKKL”, the protein production entry is reported as “not failed”. On to “MSKDSNKIIEQSREIGISIIMPLYNVEEVILETLESIHEQTFDSYEVLLIDDGSTDKTIEIVTEYIKDKPRFKLYTQPNGGPASARNHGLRLAIGMYICFVDSDDILPNYSLQLMYDGAISTGAKLITGATKRFNSEGEWFIPMHIQYNIAKPGMKTLLKNPELFYSIGPCAKLYHHSLIDGVFFPENIRYGEDQPFVLHALLQAKDIYTVEKVVYYYRLRDGESQSLTQSVDKDPIRILKSVFQIFDYGEEELKKNNTDYELEHHHHHH”, for which the protein production result is “failed”. Turning to “MSKENPLKFLGIGSAFNPNYNNTSAYFELEDNLFLIDCGGGIFNSLLSLKLLEKYLHLNVLITHTHPDHIASLGQLILYCYYQLNKKITLIFPQSEIILNLLDYMGIRNDIYILKTPQDFVNYLSKLTVISLEQVHVNELPCFGYLIYLNNVTFYYSGDSKSIPLYILTKFLEGEIDFLFQDTCSENHNHHPHLSIKELSEQIPPSKRKQVYCMHIDEKFDVNLAKNLGFNIPQEIIVERDAK”, the protein production entry is “failed”. As to “MSKGTLFDKVWDLHTVGTLPSGLTQLFIGLHLVHEVTSPQAFAMLRERGLKVLFPERTVATVDHIVPTENQARPFVDRLAEEMIQALEQNCQENNITFYNIGSGNQGIVHVIAPELGLTQPGMTIACGDSHTSSHGAFGAIAFGIGTSQVRDVLASQTLSLSKLKVRKIEVNGTLNPGVYAKDVILHIIRTLGVKGGVGYAYEYAGTTFEQMNMEERMTVCNMAIEGGARCGYVNPDQVTYDYLQGRDFAPQGADWEKAVAWWESIKSDADAEYDDVIVFNAADIPPTVTWGITPGQGIGVNQLIPQPEELLEEDRFVAEEAYRYMDLYPGQPIKGTKIDVCFIGSCTNGRLSDLQEAAKIAKGRHVAEGVKAFVVPGSERVKKAAEAEGLDKIFEAAGFEWREPGCSMCLAMNPDKLEGRQISASSSNRNFKGRQGSASGRTLLMSPAMVATAAIQGEVADVRELL”, the protein production result was “not failed”. To “MSKHQRPRILITGAAGALAQQVIRRLRESCDLVAVDFREQVYLGDDIPSYCIDFNKRVFEDLFRRYEFDGVIHLGRILSSQLTRMRRYNANVLGTQKLLDLSHKYGIRRVIVLSTYHVYGAVAYNPALIDESAPLKSAGLSADLVDSVELENLANIYLWRYPELNITILRPCNIVGPGVRNTMSTLLSSERAPVLAGFSPMMQFIHIDDMADAIVAAWAKPVKGVFNVAPQDWVAYQHALKLCGCKTIPIPSIPPSVPKAIARVLNLRSFPPYLMAFFKYPVVIDGRAFAREFGFEPKRPLKEIFRYYRDNKKPV” belongs “failed”; to “MSKIWSKEETLWSFALYGTAVGAGTLFLPIQLGSAGAIVLFITALVAWPLTYWPHKALSQFILSANIAPGTGITGAVNHYYGKKIGNLITGLYFLAFFVVVLIYAVAITNSLAEQVAHRTPMTPGLRALLSLGVVLVLNLIFLMGRQVTIKVMGFLVFPLIACFLFLSLYLIRDWHPEHLTSQMQFSPQTLHQVWISIPVMVFAFSHTPIISTFAIDQQEKHGDLAMGKCKKIMKVAYTIICASVLFFVFSCLLAIPATYIETARDQGVTILSALSMVPGAPGWLAVTGIIVAVVAMSKSFLGTYFGVIEGASEIVKSSLGLLGVRKSRAFNRAMSILLVSAFTFAVCFINPNAISMIYAISGPLIAMILFIMPTLSTWLIPALKPYRSVGNAITLVVGLLCVSVMFFG”, “failed”; to “MSKKRIIALILAVVIVLGGIIMSSISAVVSSLFSESTTSDTNPFTEKVEKEGNSSKRIAHLTLNGEITEGTGGGLFGGEGYNHEAFLKQLDNVKKDDSIKGVLLTVNTPGGGTYPSDEIYEKIKEIKQKHKKIYVHMDSMAASGGYYISAPADKIYAGPQTMTGSIGVIMSSIDYSGLQKNLGIKQNVIKSGEHKDILSSSREMTSEERDILQSVLDDSFNRFVNIVKDGRDMPESKVRKLADGRIYSAQQAKSNGLIDEIGYEDQTVKALKKDINAKDAEVFEYSTDGGWFSSMYNVKSSISQFTNEIKDVKSIITNDTKTEPMYLYEGLEHHHHHH”, “failed”. The same measure for “MSKLAQIVQKLKKQGIEAAVLSDPVSINYLTGFYSDPHERLMFLFLFADQEPLLFLPELDALRAKSILDISVTGYLDFENPLEKIKTLLPKTNYSKIALEFDNLNVTKFKGLETIFSGQFTNLTPLINRMRLIK”: “failed”. The same measure for “MSKLDLHQMTTQDLVALFAKVTVEQDDALLGNQISRFNRLFGVMAEIADELKARDGDQRTALLSLFEYPNMQVRLQAAKLTLAVAPVKAREQLEAIVSSKWFPQAGDAGMCLDLLDDGTFKPK”: “not failed”; for “MSKLFPGEVFANTADFDTGIRQLLPRYDEMLEVICRCLPLTSRRILDLGCGTGELSLKILQRCPDAQVIALDYSPRMLKFAQNKIVASGYKERWTGLQADFGDWAINPETLNIGNEFDACVSSLAIHHLYDEMKLQLFQRIAASLTPNGCFWNADPILPESPTLAEIYQAAREEWVSEQGSNFTEVRAKVGDSSPQGYSNPDQLATLDTHLQMLTKSGFTTVAVPWKYYGLAVFGGWVKLEHHHHHH”: “not failed”; for “MSKLTLGSYPHMLGFEQLERLLERSAKSGNEGYPPYNIEQTSETSYRITLAVAGFAEADLSITVEDRQLVIRGRQSDDSEGRVFLHRGIAARQFQRMFVLAEGVEVGEAVMENGLLHVDLSRAVPQSVVQTINIRKG”: “failed”. As to “MSKNNTLSMSPNFFVSGGVLLAIFTLIHLLYAGLIRPAAEVAMAEKGTEALTAFSVIFKDVEQQVCISLMLFCLFLMLYKLWRLIDEEEIYSRDLLESYDKSEALDVDAALNDLESSAYKETPAYSTWINCIRRFKNTKNVQHAADTIESSVDNIAIQLESGNNMIRYIIWAIPSIGFVGTVRGIGSALAQADKALDGDIAGMTASLGVAFNSTLVALFISLILMLFMHLLNSRQDKMVIRTQESCEKHLLSHLHS”, the protein production result was “failed”.

Consider “MSKRMRPSWYRDSPPKQLPYAFVPEEDDDVVILPQVDNSALLGRLQLSLVGRMFHQGGRSTEALLSFLPNIWDVEGRVRGVSLGDSRFQFFFESETDLQKVLNKRPCHFSKWSFALERWKSHIGISFPDTMTFWIKTEGIPTEFWEEEVLRNFGASIGAVRRVDSSKGRLQISVKADVPFRFNKNAQLPNGEVVKVKLFYEKLF”, for which the protein production entry is recorded as “failed”.

For “MSKVALFAGGDLSYISRDFDYFVGIDRGSLFLLENGLPLNMAVGDFDSVSQKAFTDIKEKAELFITAHPEKNDTDTELALKEVFARFPEAEVTIFGAFGGRMDHLLSNIFLPSDPGIAPFMAQIALRDQQNMITYRPAGQHLIHQEEGMTYVAFMAEGEADLTITGAKFELTQDNFFKKKIYSSNAFIHQPITVSLPSGYLIIIQSKDWSLEHHHHHH”, the protein production result is “not failed”. The same measure for “MSKVFICAAIPDEQAIKEEGAVAVATAIEAGDERRARAKFHWQFLEHYPAAQDCAYKFLVCEDKPGIPRPALDSWDAEYMQENRWDEGAASFVPVETESDPMNVAFDKLAPEVQNAVMVKFDTCENITVDMVISAQELLQEDMATFDGHIVEALMKMPEVNAMYPELKLHAIGWVKHKCKPGAKWPEIQAEMRIWKKRREGERKETGKYTSVVDLARARVHRQHTENSAEKIPPVTAVIRREYKQTWKTLDDELAYALWPGDVDAGNIDGSIHRWAKNEVIDNDREDWKRISASMRKQPDALRYDRQTIFGLVRERPIDIHKDPVALNKYITEYLTTKGVFEDEGTNQSATDTLSSPVPETDAVETAIPDNEKTECKVEVEPSVEREGPFYFLFTDKDGEKYGRANKLSGLDKALAAGATEITKEEYFARKNGTYTGLPQNANTAQNSEQPEPVKVTADEVKKIMQAANISQPDANQLLAASRGEFVAGISDPNDPKWVKGIETRDSVNQNQQETEQNDQKAEQNSPNTQQNEPETKQPEPVAQQEPEKVCTACGQTGGGNCPDCGAVMGDATYQETFDEEYQVEVQEDDPEEMEGAEHPHKENTDGNQHHDSDNETGETADHSIKVNGHQEITSTSRTCDHLMIDLETMGKNPDAPIISIGAIFFDPQTGDMGPEFSKTIDLETAGGVIDRDTIKWWLKQSREAQSAIMTDEIPLDDALLQLREFIDENSGEFFVQVWGNGANFDNTILRRSYERQGIPCPWRYYNDRDVRTIVELGKAIDFDARTAIPFEGERHNALDDARYQAKYVSVIWQKLIPNQADF”: “failed”; for “MSKVLVLKSSILAGYSQSGQLTDYFIEQWREKHVADEITVRDLAANPVPVLDGELVGAMRPGDAPLTPRQQDALALSDELIAELKAHDVIVIAAPMYNFNIPTQLKNYFDLIARAGITFRYTEKGPEGLVTGKRAVVLSSRGGIHKDTPTDLIAPYLKVFLGFIGITDVNFVFAEGIAYGPEVAAKAQADAKAAIDSVVAA”: “not failed”; for “MSKVLVLKSSILAGYSQSNQLSDYFVEQWREKHSADEITVRDLAANPIPVLDGELVGALRPSDAPLTTRQQEALALSDELIAELKAHDVIVIAAPMYNFNISTQLKNYFDLVARAGVTFRYTENGPEGLVTGKKAIVITSRGGIHKDGPTDLVTPYLSTFLGFIGITDVKFVFAEGIAYGPEMAAKAQSDAKAAIDSIVAA”: “failed”.

As for “MSLAAARGGVGAGPDVRPVHGVHARMAEKMTLSHKEIPTAKASVEVICAELLRLRDRFVSAAPEITPFALTLRLLVIALKHNVILNSTWVDSGEGPQVHVHRGVHLGFGAATERGLLVPVVTDAQDKNTRELASRVAELITGAREGTLTPAELRGSTFTVSNFGALGVDDGVPVINHPEAAILGLGAIKPRPVVVGGEVVARPTMTLTCVFDHRVVDGAQVAQFMCELRDLIESPETALLDLEGHHHHHH”, the protein production result is recorded as “not failed”.

On to “MSLADTVRMGTEGAYPPYNFINDAGEVDGFERELGDELCKRAGLTCEWVKNDWDSIIPNLVSGNYDTIIAGMSITDERDEVIDFTQNYIPPTASSYVATSDGADLSGIVAAQTATIQAGYIAESGATLVEFATPEETIAAVRNGEADAVFADRDYLVPIVAESGGELMFVGDDVPLGGGVGMGLRESDGELRGKFDAAITSMKEDGTLNTMIKKWFGEDAAVYEEGHHHHHH”, for which the protein production result is reported as “not failed”. To “MSLAEHKGDVMIVDDDAHVRIAVKTILSDAGFHIISADSGGQCIDLLKKGFSGVVLLDIMMPGMDGWDTIRAILDNSLEQGIAIVMLTAKNAPDAKMIGLQEYVVDYITKPFDNEDLIEKTTFFMGFVRNQTGNEGHHHHHH” belongs “not failed”.
